Experimental data: patent US9481899B2, “Methods and compositions for producing hydrocarbons” (priority 2008, dated 2016)

B1: SEQ ID NO: 19: Prochlorococcus marinus CCMP1986 PMM0532, putative decarbonylase (protein, listed as Prochlorococcus marinus)
chain: MQTLESNKKTNLENSIDLPDFTTDSYKDAYSRINAIVIEGEQEAHDNYISLATLIPNELEELTKLAKMELKHKRGFTACGRNLGVQADMIFAKEFFSKLHGNFQVALSNGKTTTCLLIQAILIEAFAISAYHVYIRVADPFAKKITQGVVKDEYLHLNYGQEWLKENLATCKDELMEANKVNLPLIKKMLDQVSEDASVLAMDREELMEEFMIAYQDTLLEIGLDNREIARMAMAAIV
B2: ATCC51142 cce_1430: Cyanothece sp. ATCC51142 cce_1430, putative aldehyde-generating enzyme (protein, listed as Cyanothece sp.)
chain: MFGLIGHLTSLEHAHSVADAFGYGPYATQGLDLWCSAPPQFVEHFHVTSITGQTIEGKYIESAFLPEMLIKRRIKAAIRKILNAMAFAQKNNLNITALGGFSSIIFEEFNLKENRQVRNVSLEFDRFTTGNTHTAYIICRQVEQASAKLGIDLSQATVAICGATGDIGSAVCRWLDRKTDTQELFLIARNKERLQRLQDELGRGKIMGLEEALPEADIIVWVASMPKGVEINAETLKKPCLIIDGGYPKNLDTKIKHPDVHILKGGIVEHSLDIDWKIMETVNMDVPSRQMFACFAEAILLEFEQWHTNFSWGRNQITVTKMEQIGEASVKHGLQPLLSW
B3: PCC7942 orf1594: Synechococcus elongatus PCC7942 orf1594, putative aldehyde-generating enzyme, named Acyl-ACP reductase (protein, listed as Synechococcus elongatus)
chain: MFGLIGHLTSLEQARDVSRRMGYDEYADQGLEFWSSAPPQIVDEITVTSATGKVIHGRYIESCFLPEMLAARRFKTATRKVLNAMSHAQKHGIDISALGGFTSIIFENFDLASLRQVRDTTLEFERFTTGNTHTAYVICRQVEAAAKTLGIDITQATVAVVGATGDIGSAVCRWLDLKLGVGDLILTARNQERLDNLQAELGRGKILPLEAALPEADFIVWVASMPQGVVIDPATLKQPCVLIDGGYPKNLGSKVQGEGIYVLNGGVVEHCFDIDWQIMSAAEMARPERQMFACFAEAMLLEFEGWHTNFSWGRNQITIEKMEAIGEASVRHGFQPLALAI
B4: sll0209: Synechocystis sp. PCC6803 sll0209, acyl-ACP reductase (protein, listed as Synechocystis sp.)
chain: MFGLIGHLTSLEHAQAVAEDLGYPEYANQGLDFWCSAPPQVVDNFQVKSVTGQVIEGKYVESCFLPEMLTQRRIKAAIRKILNAMALAQKVGLDITALGGFSSIVFEEFNLKQNNQVRNVELDFQRFTTGNTHTAYVICRQVESGAKQLGIDLSQATVAVCGATGDIGSAVCRWLDSKHQVKELLLIARNRQRLENLQEELGRGKIMDLETALPQADIIVWVASMPKGVEIAGEMLKKPCLIVDGGYPKNLDTRVKADGVHILKGGIVEHSLDITWEIMKIVEMDIPSRQMFACFAEAILLEFEGWRTNFSWGRNQISVNKMEAIGEASVKHGFCPLVAL
B5: SEQ ID NO: 53: Synechococcus sp. RS9917 RS9917_12945, putative decarbonylase, codon optimized for E. coli (protein, listed as Synechococcus sp.)
chain: MTQLDFASAAYREAYSRINGVVIVGEGLANRHFQMLARRIPADRDELQRLGRMEGDHASAFVGCGRNLGVVADLPLARRLFQPLHDLFKRHDHDGNRAECLVIQGLIVECFAVAAYRHYLPVADAYARPITAAVMNDESEHLDYAETWLQRHFDQVKARVSAVVVEALPLTLAMLQSLAADMRQIGMDPVETLASFSELFREALESVGFEAVEARRLLMRAAARMV
B6: SEQ ID NO: 52: Synechococcus sp. RS9917 RS9917_09941, putative decarbonylase, codon optimized for E. coli (protein, listed as Synechococcus sp.)
chain: MPTLETSEVAVLEDSMASGSRLPDFTSEAYKDAYSRINAIVIEGEQEAHDNYIALGTLIPEQKDELARLARMEMKHMKGFTSCGRNLGVEADLPFAKEFFAPLHGNFQAALQEGKVVTCLLIQALLIEAFAISAYHIYIPVADPFARKITEGVVKDEYTHLNYGQEWLKANFEASKDELMEANKANLPLIRSMLEQVAADAAVLQMEKEDLIEDFLIAYQEALCEIGFSSRDIARMAAAALAV
B7: PMM0533: P. mariunus CCMP1986 PMM0533, putative aldehyde-generating enzyme (protein, listed as Prochlorococcus marinus)
chain: MFGLIGHSTSFEDAKRKASLLGFDHIADGDLDVWCTAPPQLVENVEVKSAIGISIEGSYIDSCFVPEMLSRFKTARRKVLNAMELAQKKGINITALGGFTSIIFENFNLLQHKQIRNTSLEWERFTTGNTHTAWVICRQLEMNAPKIGIDLKSATVAVVGATGDIGSAVCRWLINKTGIGELLLVARQKEPLDSLQKELDGGTIKNLDEALPEADIVVWVASMPKTMEIDANNLKQPCLMIDGGYPKNLDEKFQGNNIHVVKGGIVRFFNDIGWNMMELAEMQNPQREMFACFAEAMILEFEKCHTNFSWGRNNISLEKMEFIGAASVKHGFSAIGLDKHPKVLAV

Experiments:
Assay type in all cases: cell-based
E. coli MG1655 [1] = assay: Coexpression of decarbonylase and aldehyde-generating enzyme in E. coli, GC-MS of hydrocarbons; conditions: for Production of Alkanes and Alkenes: alkane/alkene biosynthetic polypeptide coexpressed in E. coli with the aldehyde biosynthetic polypeptide of the same table row; for fatty aldehyde decarbonylase activity in E. coli: cotransformed with S. elongatus PCC7942_1594 into E. coli MG1655, M9 minimal media, 37° C.
Description: Seven cyanobacteria, whose complete genome sequences are publicly available, were selected for verification and/or detection of alkane biosynthesis: Synechococcus elongatus PCC7942, Synechococcus elongatus PCC6301, Anabaena variabilis ATCC29413, Synechocystis sp. PCC6803, Nostoc punctiforme PCC73102, Gloeobacter violaceus ATCC 29082, and Prochlorococcus marinus CCMP1986. Only the first three cyanobacterial strains from this list had previously been reported to contain alkanes (Han et al., J. Am. Chem. Soc. 91:5156-5159 (1969); Fehler et al., Biochem. 9:418-422 (1970)). The strains were grown photoautotrophically in shake flasks in 100 mL of the appropriate media (listed in Table 8) for 3-7 days at 30° C. at a light intensity of approximately 3,500 lux. Cells were extracted for alkane detection as follows: cells from 1 mL culture volume were centrifuged for 1 min at 13,000 rpm, the cell pellets were resuspended in methanol, vortexed for 1 min and then sonicated for 30 min. After centrifugation for 3 min at 13,000 rpm, the supernatants were transferred to fresh vials and analyzed by GC-MS. The samples were analyzed on either 30 m DP-5 capillary column (0.25 mm internal diameter) or a 30 m high temperature DP-5 capillary column (0.25 mm internal diameter) using the following method.
After a 1 μL splitless injection (inlet temperature held at 300° C.) onto the GC/MS column, the oven was held at 100° C. for 3 mins. The temperature was ramped up to 320° C. at a rate of 20° C./min. The oven was held at 320° C. for an additional 5 min. The flow rate of the carrier gas helium was 1.3 mL/min. The MS quadrapole scanned from 50 to 550 m/z. Retention times and fragmentation patterns of product peaks were compared with authentic references to confirm peak identity.
(§1) The genomic DNA encoding Synechococcus elongatus PCC7942 orf1594 (YP_400611; putative aldehyde-generating enzyme) (SEQ ID NO:65) was amplified and cloned into the NcoI and EcoRI sites of vector OP-80 (pCL1920 derivative) under the control of the Ptrc promoter. The resulting construct (“OP80-PCC7942_1594”) was transformed into E. coli MG1655 and the cells were grown at 37° C. in M9 minimal media with 1% (w/v) glucose as carbon source and supplemented with 100 μg/mL spectinomycin. When the culture reached OD600 of 0.8-1.0, it was induced with 1 mM IPTG and cells were grown for an additional 18-20 h at 37° C. Cells from 0.5 mL of culture were extracted with 0.5 mL of ethyl acetate. After sonication for 60 min, the sample was centrifuged at 15,000 rpm for 5 min. The solvent layer was analyzed by GC-MS as described in Example 1.
The genomic DNA encoding Synechococcus elongatus PCC7942 orf1593 (YP_400610; putative decarbonylase) (SEQ ID NO:1) was amplified and cloned into the NdeI and XhoI sites of vector OP-183 (pACYC derivative) under the control of the Ptrc promoter. The resulting construct was cotransformed with OP80-PCC7942_1594 into E. coli MG1655 and the cells were grown at 37° C. in M9 minimal media supplemented with 100 μg/mL spectinomycin and 100 μg/mL carbenicillin. The cells were cultured and extracted as in Example 3 and analyzed by GC-MS as described in Example 1. […]

[2] = system: E. coli MG1655 ΔfadD lacZ::Ptrc-′tesA; assay: Decarbonylase expression in fatty aldehyde-producing E. coli strain expressing MSMEG_5739; conditions: coexpressed with M. smegmatis carboxylic acid reductase MSMEG_5739
E. coli MG1655 [3] = assay: Heterologous expression of aldehyde-generating enzyme alone in E. coli, GC-MS of fatty aldehydes and fatty alcohols
Protocol: as §1
The genomic DNA encoding Cyanothece sp. ATCC51142 cce_1430 (YP_001802846; putative aldehyde-generating enzyme) (SEQ ID NO:69) was amplified and cloned into the NcoI and EcoRI sites of vector OP-80 (pCL1920 derivative) under the control of the Ptrc promoter. The resulting construct was transformed into E. coli MG1655 and the cells were grown at 37° C. in M9 minimal media with 1% (w/v) glucose as carbon source and supplemented with 100 μg/mL spectinomycin. The cells were cultured and extracted as in Example 3 and analyzed by GC-MS as described in Example 26.
The genomic DNA encoding P. mariunus CCMP1986 PMM0533 (NP_892651; putative aldehyde-generating enzyme) (SEQ ID NO:71) and Prochlorococcus mariunus CCMP1986 PMM0532 (NP_892650; putative decarbonylase) (SEQ ID NO:19) were amplified and cloned into the NcoI and EcoRI sites of vector OP-80 and the NdeI and XhoI sites of vector OP-183, respectively. The resulting constructs were separately transformed and cotransformed into E. coli MG1655 and the cells were grown at 37° C. in M9 minimal media supplemented with 100 μg/mL spectinomycin and 100 μg/mL carbenicillin. The cells were cultured and extracted as in Example 3 and analyzed by GC-MS as described in Example 26.
The genomic DNA encoding Synechocystis sp. PCC6803 sll0208 (NP_442147; putative fatty aldehyde decarbonylase) (SEQ ID NO:3) was synthesized and cloned into the NdeI and XhoI sites of vector OP-183 (pACYC derivative) under the control of the Ptrc promoter. The genomic DNA encoding Synechocystis sp. PCC6803 sll0209 (NP_442146; acyl-ACP reductase) (SEQ ID NO:67) was synthesized and cloned into the NcoI and EcoRI sites of vector OP-183 (pACYC derivative) under the control of the Ptrc promoter. The resulting constructs were cotransformed with into E. coli MG1655 ΔfadE lacZ::Ptrc ′tesA-fadD. […] The cells were cultured and extracted as in Example 3 and analyzed by GC-MS as described in Example 26.

[4] = enzyme expressed alone in E. coli MG1655

Molecule	Production of Alkanes and Alkenes (E. coli MG1655 [1])	fatty aldehyde decarbonylase activity in E. coli (E. coli MG1655 [1])	conversion of fatty aldehydes provided by MSMEG_5739 to alkanes [2]	production of fatty aldehydes and fatty alcohols (E. coli MG1655 [3]; [4])	production of fatty aldehydes and fatty alcohols (E. coli MG1655 [3]; enzyme expressed alone in E. coli MG1655 ΔfadE lacZ::Ptrc ′tesA-fadD (fatty acyl-CoA-producing))
B1	yes	active fatty aldehyde decarbonylase	converted fatty aldehydes provided by MSMEG_5739 to the corresponding alkanes		
B2				generates aldehydes in-vivo	
B3				generates aldehydes in-vivo	
B4					did not produce any fatty aldehydes or fatty alcohols
B5	yes	active fatty aldehyde decarbonylase	converted fatty aldehydes provided by MSMEG_5739 to the corresponding alkanes		
B6	yes	active fatty aldehyde decarbonylase	converted fatty aldehydes provided by MSMEG_5739 to the corresponding alkanes		
B7				did not produce any fatty aldehydes or fatty alcohols	
